For 1 molecule, percent of rAAV6 in the pellet fraction (2,000 g, 10 minutes) and percent of rAAV6 in the precipitate (10,000 g, 30 minutes) results are on record in article PMC4362353.

The target in the experiment is recombinant adeno-associated virus-6 vector particle (rAAV6 capsid) (adeno-associated virus 6). Description: co-sedimentation.

B1: secreted human Galectin 3-binding protein from HEK293 culture medium (natural protein)
chain: VNDGDMRLADGGATNQGRVEIFYRGQWGTVCDNLWDLTDASVVCRALGFENATQALGRAAFGQGSGPIMLDEVQCTGTEASLADCKSLGWLKSNCRHERDAGVVCTNETRSTHTLDLSRELSEALGQIFDSQRGCDLSISVNVQGEDALGFCGHTVILTANLEAQALWKEPGSNVTMSVDAECVPMVRDLLRYFYSRRIDITLSSVKCFHKLASAYGARQLQGYCASLFAILLPQDPSFQMPLDLYAYAVATGDALLEKLCLQFLAWNFEALTQAEAWPSVPTDLLQLLLPRSDLAVPSELALLKAVDTWSWGERASHEEVEGLVEKIRFPMMLPEELFELQFNLSLYWSHEALFQKKTLQALEFHTVPFQLLARYKGLNLTEDTYKPRIYTSPTWSAFVTDSSWSARKSQLVYQSRRGPLVKYSSDYFQAPSDYRYYPYQSFQTPQHPSFLFQDKRVSWSLVYLPTIQSCWNYGFSCSSDELPVLGLTKSGGSDRTIAYENKALMLCEGLFVADVTDFEGWKAAIPSALDTNSSKSTSSFPCPAGHFNGFRTVIRPFYLTNSSGVD
B1: the percent of rAAV6 in the pellet fraction (2,000 g, 10 minutes) is 70% and the percent of rAAV6 in the precipitate (10,000 g, 30 minutes) is 90%.
